Test results as given in PMC9352680, “A comprehensive thermodynamic model for RNA binding by the Saccharomyces cerevisiae Pumilio protein PUF4”.

T1: PUF4 RNA-binding domain (Saccharomyces cerevisiae, UniProt P25339 537-888)
T1 sequence: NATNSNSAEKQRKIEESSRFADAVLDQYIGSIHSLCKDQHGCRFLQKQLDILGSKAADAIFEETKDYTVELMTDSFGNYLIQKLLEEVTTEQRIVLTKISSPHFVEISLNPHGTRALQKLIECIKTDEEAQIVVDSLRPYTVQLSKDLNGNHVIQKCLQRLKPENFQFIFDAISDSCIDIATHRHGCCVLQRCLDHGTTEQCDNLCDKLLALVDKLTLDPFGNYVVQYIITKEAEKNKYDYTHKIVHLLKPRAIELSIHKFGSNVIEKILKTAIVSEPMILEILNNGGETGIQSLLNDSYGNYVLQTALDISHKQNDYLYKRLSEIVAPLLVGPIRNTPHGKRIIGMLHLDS

B1: Ib_S4_P4E.1_K4.1_C4.1_H4.1_A4.1_F4.1_[T8G]_[A9C]_T4.1 (ssRNA)
RNA: UUUGACAACUGAUCGUUCUUUCUUGUAUAUGCUUCUUUCUCGAUCAGUUGUCUUU
B2: Ic_S4_P4E.1_K4.1_C4.1_H4.1_A4.1_F4.1_[T8A]_[A9C]_T4.1 (ssRNA)
RNA: UUUGACAACUGAUCGUUCUUUCUUGUAUAUACUUCUUUCUCGAUCAGUUGUCUUU
B3: Ib_S4_P4E.1_K4.1_C4.1_H4.1_[T1A]_A4.1_F4.1_[T8A]_T4.1 (ssRNA)
RNA: UUUGACAACUGAUCGUUCUUUCUAGUAUAUAAUUCUUUCUCGAUCAGUUGUCUUU
B4: Ib_S4_P4E.1_K4.1_C4.1_H4.1_[T1G]_A4.1_F4.1_[T8C]_T4.1 (ssRNA)
RNA: UUUGACAACUGAUCGUUCUUUCUGGUAUAUCAUUCUUUCUCGAUCAGUUGUCUUU
B5: Ib_S4_P4E.1_K4.1_C4.1_H4.1_A4.1_F4.1_[T8C]_[A9G]_T4.1 (ssRNA)
RNA: UUUGACAACUGAUCGUUCUUUCUUGUAUAUCGUUCUUUCUCGAUCAGUUGUCUUU
B6: Ib_S4_P4E.1_K4.1_C4.1_H4.1_[T1G]_A4.1_F4.1_[T8A]_T4.1 (ssRNA)
RNA: UUUGACAACUGAUCGUUCUUUCUGGUAUAUAAUUCUUUCUCGAUCAGUUGUCUUU
B7: Ib_S4_P4E.1_K4.1_C4.1_H4.1_[T1C]_A4.1_F4.1_[T8C]_T4.1 (ssRNA)
RNA: UUUGACAACUGAUCGUUCUUUCUCGUAUAUCAUUCUUUCUCGAUCAGUUGUCUUU
B8: Ib_S4_P4E.1_K4.1_C4.1_H4.1_A4.1_F4.1_[T8A]_[A9G]_T4.1 (ssRNA)
RNA: UUUGACAACUGAUCGUUCUUUCUUGUAUAUAGUUCUUUCUCGAUCAGUUGUCUUU
B9: Ib_S4_P4E.1_K4.1_C4.1_H4.1_[G2C]_A4.1_F4.1_[T8C]_T4.1 (ssRNA)
RNA: UUUGACAACUGAUCGUUCUUUCUUCUAUAUCAUUCUUUCUCGAUCAGUUGUCUUU
B10: Ib_S4_P3E.1_K3.1_C3.1_H3.1_[G2C]_[A4C]_A3.1_F3.1_T3.1 (ssRNA)
RNA: UUUGACAACUGAUCGUUCUUUCUUCUCUAUAUUCUUUCUCGAUCAGUUGUCUUU
B11: Ib_S4_P3E.1_K3.1_C3.1_H3.1_[G2C]_[A4T]_A3.1_F3.1_T3.1 (ssRNA)
RNA: UUUGACAACUGAUCGUUCUUUCUUCUUUAUAUUCUUUCUCGAUCAGUUGUCUUU
B12: Ib_S4_P3E.1_K3.1_C3.1_H3.1_[T3C]_[A4G]_A3.1_F3.1_T3.1 (ssRNA)
RNA: UUUGACAACUGAUCGUUCUUUCUUGCGUAUAUUCUUUCUCGAUCAGUUGUCUUU
B13: Ic_S4_P3E.1_K3.1_C3.1_H3.1_A3.1_[T5C]_[A6T]_F3.1_T3.1 (ssRNA)
RNA: UUUGACAACUGAUCGUUCUUUCUUGUACUUAUUCUUUCUCGAUCAGUUGUCUUU
B14: Ia_S4_P3E.1_K3.1_C3.1_H3.1_A3.1_F3.1_[A8C]_T3.1 (ssRNA)
RNA: UUUGACAACUGAUCGUUCUUUCUUGUAUAUCUUCUUUCUCGAUCAGUUGUCUUU
B15: Ib_S4_P3E.1_K3.1_C3.1_H3.1_[A4G]_A3.1_[A6T]_F3.1_T3.1 (ssRNA)
RNA: UUUGACAACUGAUCGUUCUUUCUUGUGUUUAUUCUUUCUCGAUCAGUUGUCUUU
B16: Ib_S4_P3E.1_K3.1_C3.1_H3.1_[T1C]_A3.1_[T5A]_F3.1_T3.1 (ssRNA)
RNA: UUUGACAACUGAUCGUUCUUUCUCGUAAAUAUUCUUUCUCGAUCAGUUGUCUUU
B17: Ib_S4_P3E.1_K3.1_C3.1_H3.1_[T3C]_[A4C]_A3.1_F3.1_T3.1 (ssRNA)
RNA: UUUGACAACUGAUCGUUCUUUCUUGCCUAUAUUCUUUCUCGAUCAGUUGUCUUU
B18: Ib_S4_P3E.1_K3.1_C3.1_H3.1_A3.1_[T5C]_[A6C]_F3.1_T3.1 (ssRNA)
RNA: UUUGACAACUGAUCGUUCUUUCUUGUACCUAUUCUUUCUCGAUCAGUUGUCUUU
B19: Ib_S4_P3E.1_K3.1_C3.1_H3.1_[T1G]_A3.1_[A6C]_F3.1_T3.1 (ssRNA)
RNA: UUUGACAACUGAUCGUUCUUUCUGGUAUCUAUUCUUUCUCGAUCAGUUGUCUUU
B20: Ib_S4_P3E.1_K3.1_C3.1_H3.1_[A4C]_A3.1_[T5A]_F3.1_T3.1 (ssRNA)
RNA: UUUGACAACUGAUCGUUCUUUCUUGUCAAUAUUCUUUCUCGAUCAGUUGUCUUU
B21: Ib_S4_P3E.1_K3.1_C3.1_H3.1_[T1G]_A3.1_[T5C]_F3.1_T3.1 (ssRNA)
RNA: UUUGACAACUGAUCGUUCUUUCUGGUACAUAUUCUUUCUCGAUCAGUUGUCUUU
B22: Ib_S4_P3E.1_K3.1_C3.1_H3.1_[G2T]_A3.1_[A6T]_F3.1_T3.1 (ssRNA)
RNA: UUUGACAACUGAUCGUUCUUUCUUUUAUUUAUUCUUUCUCGAUCAGUUGUCUUU
B23: Ib_S4_P3E.1_K3.1_C3.1_H3.1_[G2T]_[A4G]_A3.1_F3.1_T3.1 (ssRNA)
RNA: UUUGACAACUGAUCGUUCUUUCUUUUGUAUAUUCUUUCUCGAUCAGUUGUCUUU
B24: Ib_S4_P3E.1_K3.1_C3.1_H3.1_[T1A]_A3.1_[A6T]_F3.1_T3.1 (ssRNA)
RNA: UUUGACAACUGAUCGUUCUUUCUAGUAUUUAUUCUUUCUCGAUCAGUUGUCUUU
B25: Ib_S4_P3E.1_K3.1_C3.1_H3.1_[G2A]_A3.1_[A6T]_F3.1_T3.1 (ssRNA)
RNA: UUUGACAACUGAUCGUUCUUUCUUAUAUUUAUUCUUUCUCGAUCAGUUGUCUUU
B26: Ib_S4_P3E.1_K3.1_C3.1_H3.1_[T1A]_A3.1_[A6G]_F3.1_T3.1 (ssRNA)
RNA: UUUGACAACUGAUCGUUCUUUCUAGUAUGUAUUCUUUCUCGAUCAGUUGUCUUU
B27: Ia_S4_P3E.1_K3.1_C3.1_H3.1_A3.1_F3.1_[T7A]_T3.1 (ssRNA)
RNA: UUUGACAACUGAUCGUUCUUUCUUGUAUAAAUUCUUUCUCGAUCAGUUGUCUUU
B28: Ib_S4_P3E.1_K3.1_C3.1_H3.1_[T1A]_A3.1_[T5C]_F3.1_T3.1 (ssRNA)
RNA: UUUGACAACUGAUCGUUCUUUCUAGUACAUAUUCUUUCUCGAUCAGUUGUCUUU
B29: Ib_S4_P3E.1_K3.1_C3.1_H3.1_[G2A]_[A4G]_A3.1_F3.1_T3.1 (ssRNA)
RNA: UUUGACAACUGAUCGUUCUUUCUUAUGUAUAUUCUUUCUCGAUCAGUUGUCUUU
B30: Ib_S4_P3E.1_K3.1_C3.1_H3.1_[G2A]_A3.1_[T5C]_F3.1_T3.1 (ssRNA)
RNA: UUUGACAACUGAUCGUUCUUUCUUAUACAUAUUCUUUCUCGAUCAGUUGUCUUU
B31: Ib_S4_P3E.1_K3.1_C3.1_H3.1_[A4C]_A3.1_[A6G]_F3.1_T3.1 (ssRNA)
RNA: UUUGACAACUGAUCGUUCUUUCUUGUCUGUAUUCUUUCUCGAUCAGUUGUCUUU
B32: Ib_S4_P3E.1_K3.1_C3.1_H3.1_[A4C]_A3.1_[T5C]_F3.1_T3.1 (ssRNA)
RNA: UUUGACAACUGAUCGUUCUUUCUUGUCCAUAUUCUUUCUCGAUCAGUUGUCUUU
B33: Ib_S4_P3E.1_K3.1_C3.1_H3.1_[T1C]_A3.1_[A6T]_F3.1_T3.1 (ssRNA)
RNA: UUUGACAACUGAUCGUUCUUUCUCGUAUUUAUUCUUUCUCGAUCAGUUGUCUUU
B34: Ib_S4_P3E.1_K3.1_C3.1_H3.1_[A4C]_A3.1_[A6T]_F3.1_T3.1 (ssRNA)
RNA: UUUGACAACUGAUCGUUCUUUCUUGUCUUUAUUCUUUCUCGAUCAGUUGUCUUU
B35: Ib_S4_P3E.1_K3.1_C3.1_H3.1_[A4C]_A3.1_[A6C]_F3.1_T3.1 (ssRNA)
RNA: UUUGACAACUGAUCGUUCUUUCUUGUCUCUAUUCUUUCUCGAUCAGUUGUCUUU
B36: Ib_S4_P3E.1_K3.1_C3.1_H3.1_[G2A]_A3.1_[A6G]_F3.1_T3.1 (ssRNA)
RNA: UUUGACAACUGAUCGUUCUUUCUUAUAUGUAUUCUUUCUCGAUCAGUUGUCUUU
B37: Ib_S4_P3E.1_K3.1_C3.1_H3.1_[T1G]_A3.1_[A6G]_F3.1_T3.1 (ssRNA)
RNA: UUUGACAACUGAUCGUUCUUUCUGGUAUGUAUUCUUUCUCGAUCAGUUGUCUUU
B38: Ib_S4_P3E.1_K3.1_C3.1_H3.1_[A4G]_A3.1_[A6C]_F3.1_T3.1 (ssRNA)
RNA: UUUGACAACUGAUCGUUCUUUCUUGUGUCUAUUCUUUCUCGAUCAGUUGUCUUU
B39: Ib_S4_P3E.1_K3.1_C3.1_H3.1_[A4G]_A3.1_[T5C]_F3.1_T3.1 (ssRNA)
RNA: UUUGACAACUGAUCGUUCUUUCUUGUGCAUAUUCUUUCUCGAUCAGUUGUCUUU
B40: Ib_S4_P3E.1_K3.1_C3.1_H3.1_[T3C]_[A4T]_A3.1_F3.1_T3.1 (ssRNA)
RNA: UUUGACAACUGAUCGUUCUUUCUUGCUUAUAUUCUUUCUCGAUCAGUUGUCUUU
B41: Ib_S4_P3E.1_K3.1_C3.1_H3.1_[T1A]_A3.1_[A6C]_F3.1_T3.1 (ssRNA)
RNA: UUUGACAACUGAUCGUUCUUUCUAGUAUCUAUUCUUUCUCGAUCAGUUGUCUUU
B42: Ib_S4_P3E.1_K3.1_C3.1_H3.1_[T1A]_A3.1_[T5A]_F3.1_T3.1 (ssRNA)
RNA: UUUGACAACUGAUCGUUCUUUCUAGUAAAUAUUCUUUCUCGAUCAGUUGUCUUU
B43: Ib_S4_P3E.1_K3.1_C3.1_H3.1_[G2A]_A3.1_[T5A]_F3.1_T3.1 (ssRNA)
RNA: UUUGACAACUGAUCGUUCUUUCUUAUAAAUAUUCUUUCUCGAUCAGUUGUCUUU
B44: Ia_S4_P3E.1_K3.1_C3.1_H3.1_A3.1_F3.1_[A8G]_T3.1 (ssRNA)
RNA: UUUGACAACUGAUCGUUCUUUCUUGUAUAUGUUCUUUCUCGAUCAGUUGUCUUU

What follows are binders tested against T1, PUF4 RNA-binding domain (assay: Mg; RNA-MaP; 20 mM Na-HEPES pH 7.4, 30 mM KOAc, 0.75 mM MgCl2, 0.1% Tween-20, 5% glycerol, 0.1 mg/mL BSA, 2 mM DTT; 25 C; 0.0125-409.6 nM protein). Conditions: tags: N-His6-TEV cleaved; C-SNAP kept, Cy3B-labelled; label: tethered on chip by stalled RNA polymerase.

Row | Binder | Kd [nM]
1 | UCUCUUUGCAUAUAUCUCUU (ssRNA) [Ia_S1_P3E.1_K3.1_C3.1_H3.1_[T3C]_A3.1_F3.1_T3.1] | > 2300
2 | B1 | 20.6
3 | B2 | 6.29
4 | B3 | 1680
5 | B4 | > 2300
6 | B5 | 17.1
7 | B6 | 1410
8 | B7 | 652
9 | B8 | 9.97
10 | B9 | 666
11 | ACAAACUGUCUUAUUAACAAAC (ssRNA) [Ia_S3_P5E.1_K5.1_C5.1_H5.1_[A4C]_A5.1_F5.1_T5.1] | 365
12 | B10 | > 2300
13 | B11 | 1800
14 | B12 | 1160
15 | B13 | 16.8
16 | B14 | 12.3
17 | B15 | 92.3
18 | B16 | > 2300
19 | B17 | > 2300
20 | B18 | 14.8
21 | B19 | > 2300
22 | B20 | 1450
23 | B21 | 1810

Row | Binder | Kd [nM]
24 | B22 | > 2300
25 | B23 | 3.32
26 | B24 | > 2300
27 | B25 | 1900
28 | B26 | 225
29 | B27 | 54.5
30 | B28 | > 2300
31 | B29 | 5.75
32 | B30 | 383
33 | B31 | 40.5
34 | B32 | 443
35 | B33 | > 2300
36 | B34 | 1140
37 | B35 | 1370
38 | B36 | 72.2
39 | B37 | 198
40 | B38 | 117
41 | B39 | 22.4
42 | B40 | 2120
43 | B41 | > 2300
44 | B42 | > 2300
45 | B43 | 2080
46 | B44 | 8.32
